± gives the standard deviation of the averaged measurements.
B1: library; a variant is named by its letters at N, in order (parent)
chain: GCUGUCACCGGUGCUUGGUACGUUAUAUUCAGCCGGUCUGAUGAGUCUNNNNNNAGACGAAACAGC

What was measured:
(6R,S)-folinic acid [1] = variants of: B1; test: normalized RNA/DNA level without ligand (relative to sTRSVctl = 100) (log10 (% of sTRSVctl)); HEK293T overexpressing SLC46A1; higher = less ribozyme self-cleavage, higher mRNA level; conditions: without (6R,S)-folinic acid; ligand present: no
Method in brief: (§1)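 Ribozyme switch library plasmids with mCherry reporters (eGFP in certain ligand experiments) went into HEK293T cells at 4 µg per 6-well well. Where ligand was used, it was applied 1 h before transfection, and total RNA was extracted with EDTA 72 h later for reverse transcription, amplification, barcoding and sequencing. RNA level is the RNA-to-DNA read ratio normalized to a spiked-in non-cleaving sequence or to the leading sequences, then scaled and log-transformed. Scaling was ×100 with log10, the leading set comprised 25 sequences, and the cutoff was ≥100 DNA reads.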

(6R,S)-folinic acid [2] = variants of: B1; test: normalized RNA/DNA level with ligand (relative to sTRSVctl = 100) (log10 (% of sTRSVctl)); HEK293T overexpressing SLC46A1; ligand concentration (+) RNA-Seq: 6 mM; higher = less ribozyme self-cleavage, higher mRNA level; conditions: with (6R,S)-folinic acid; ligand present: yes
Method in brief: as §1

Row | Variant | normalized RNA/DNA level without ligand (log10) ((6R,S)-folinic acid [1]) | normalized RNA/DNA level with ligand (log10) ((6R,S)-folinic acid [2])
1 | UGCGUC | 2.09 ± 0.0072 | 2.04 ± 0.044
2 | UGCGUU | 1.972 ± 0.018 | 2 ± 0.051
3 | UGCGUA | 1.904 ± 0.015 | 1.98 ± 0.035
4 | CGCGGG | 1.938 ± 0.017 | 2.039 ± 0.01
5 | CGCGGC | 2.11 ± 0.023 | 2.13 ± 0.047
6 | CGCGGU | 2.003 ± 0.019 | 2.035 ± 0.015
7 | CGCGGA | 2.052 ± 0.0026 | 2.05 ± 0.03
8 | GGGAGA | 2.021 ± 0.0092 | 2.05 ± 0.043
9 | UGGAGC | 1.996 ± 0.0034 | 2.06 ± 0.036
10 | UGCCUA | 2.03 ± 0.023 | 2.03 ± 0.023
11 | UGCCUU | 2.0129 ± 0.0012 | 2.011 ± 0.018
12 | UGCCUC | 2.065 ± 0.0067 | 2 ± 0.065
13 | GGCGAA | 2.051 ± 0.0044 | 2.04 ± 0.021
14 | GGCGAG | 2.05 ± 0.017 | 2.018 ± 0.018
15 | UGCUUU | 2.016 ± 0.0073 | 2.032 ± 0.0036
16 | UGCUUA | 2.003 ± 0.0057 | 2.03 ± 0.026
17 | UGCUUC | 2.04 ± 0.027 | 2.04 ± 0.043
18 | GGGAUU | 2.0271 ± 0.0004 | 2.04 ± 0.047
19 | GGGAUA | 2 ± 0.028 | 2.03 ± 0.022
20 | GGGAUC | 2.037 ± 0.0086 | 2.04 ± 0.027
21 | GGCUGG | 2.064 ± 0.0042 | 2.05 ± 0.046
22 | GGCUGA | 2.094 ± 0.014 | 2.08 ± 0.052
23 | GGCUGU | 2.067 ± 0.016 | 2.066 ± 0.019

Row | Variant | normalized RNA/DNA level without ligand (log10) ((6R,S)-folinic acid [1]) | normalized RNA/DNA level with ligand (log10) ((6R,S)-folinic acid [2])
24 | GGCUGC | 2.07 ± 0.0054 | 2.05 ± 0.021
25 | CGCGUA | 1.993 ± 0.017 | 2.006 ± 0.0037
26 | CGCGUU | 2.094 ± 0.014 | 2.07 ± 0.03
27 | CGCGUC | 2.071 ± 0.0094 | 2.06 ± 0.036
28 | CGCGUG | 1.963 ± 0.0059 | 2 ± 0.027
29 | CGGAGC | 1.994 ± 0.0049 | 2 ± 0.032
30 | CGGAGG | 1.83 ± 0.02 | 1.994 ± 0.01
31 | CGGAGU | 2.019 ± 0.017 | 2.025 ± 0.012
32 | CGGAGA | 1.997 ± 0.017 | 2.03 ± 0.042
33 | GGGCGC | 2.011 ± 0.016 | 2.04 ± 0.048
34 | GGGCGU | 2.103 ± 0.0047 | 2.08 ± 0.05
35 | GGGCGA | 2.089 ± 0.0043 | 2.1 ± 0.018
36 | GGCUAU | 2.051 ± 0.0061 | 2.01 ± 0.027
37 | GGCUAC | 2.02 ± 0.042 | 2.05 ± 0.021
38 | GGCUAG | 2.063 ± 0.0075 | 2.042 ± 0.004
39 | GGCUAA | 2.036 ± 0.011 | 2.05 ± 0.033
40 | AGGAAA | 1.942 ± 0.0081 | 1.99 ± 0.04
41 | AGGAAG | 1.89 ± 0.0078 | 2.01 ± 0.043
42 | UGGCCU | 2.043 ± 0.014 | 2.03 ± 0.024
43 | UGGCCG | 2.01 ± 0.036 | 2.03 ± 0.046
44 | UGGCCC | 2.059 ± 0.0063 | 2.06 ± 0.068
45 | UGGAAA | 1.919 ± 0.0043 | 1.98 ± 0.028
46 | UGGAAC | 1.921 ± 0.0075 | 2 ± 0.035

Row | Variant | normalized RNA/DNA level without ligand (log10) ((6R,S)-folinic acid [1]) | normalized RNA/DNA level with ligand (log10) ((6R,S)-folinic acid [2])
47 | UGGAAU | 1.869 ± 0.0092 | 2 ± 0.024
48 | CGCCUA | 2.05 ± 0.0096 | 2.05 ± 0.061
49 | CGCCUC | 2.039 ± 0.0057 | 1.992 ± 0.015
50 | CGCCUG | 2.057 ± 0.011 | 2.056 ± 0.002
51 | CGCCUU | 2.0227 ± 0.00028 | 2.007 ± 0.018
52 | UGGCAC | 2.041 ± 0.016 | 2.04 ± 0.042
53 | UGGCAA | 1.97 ± 0.024 | 2.01 ± 0.033
54 | UGGCAU | 1.965 ± 0.014 | 2.01 ± 0.021
55 | UGCCGC | 2.03 ± 0.031 | 2.02 ± 0.048
56 | UGCCGU | 2.009 ± 0.019 | 2.02 ± 0.042
57 | GGGAAU | 2.008 ± 0.0024 | 2.019 ± 0.02
58 | GGGAAC | 1.997 ± 0.015 | 2.02 ± 0.032
59 | GGGAAA | 1.99 ± 0.0091 | 2.02 ± 0.036
60 | UGGGAA | 1.8778 ± 0.0006 | 1.98 ± 0.028
61 | UGGGAC | 1.99 ± 0.03 | 2.015 ± 0.0073
62 | AGCUCC | 2.095 ± 0.0069 | 2.04 ± 0.042
63 | AGCUCA | 2.07 ± 0.026 | 2.01 ± 0.04
64 | AGCUCU | 2.02 ± 0.039 | 2.055 ± 0.0097
65 | AGCUCG | 1.99 ± 0.024 | 1.998 ± 0.0042
66 | UGCGGC | 1.998 ± 0.006 | 1.98 ± 0.045
67 | UGCGGU | 1.976 ± 0.014 | 2.03 ± 0.025
68 | UGCGGA | 1.886 ± 0.0066 | 2.01 ± 0.04
69 | CGCGAA | 1.9769 ± 0.0003 | 2.01 ± 0.031

Row | Variant | normalized RNA/DNA level without ligand (log10) ((6R,S)-folinic acid [1]) | normalized RNA/DNA level with ligand (log10) ((6R,S)-folinic acid [2])
70 | CGCGAG | 1.98 ± 0.039 | 2 ± 0.037
71 | CGCGAC | 2.0427 ± 0.0011 | 2.04 ± 0.029
72 | CGCGAU | 1.939 ± 0.0057 | 1.97 ± 0.041
73 | GGCCUG | 2.064 ± 0.015 | 2.03 ± 0.085
74 | GGCCUA | 2.04 ± 0.021 | 2.01 ± 0.045
75 | GGCCUC | 2.044 ± 0.018 | 2.06 ± 0.025
76 | GGCCUU | 2.108 ± 0.0078 | 2.09 ± 0.042
77 | UGCUCA | 1.982 ± 0.006 | 1.988 ± 0.013
78 | UGCUCC | 2.062 ± 0.0087 | 2.03 ± 0.081
79 | CGCUAA | 1.97 ± 0.019 | 1.99 ± 0.055
80 | CGCUAC | 2.0081 ± 0.001 | 2.03 ± 0.048
81 | CGCUAU | 1.981 ± 0.0029 | 2 ± 0.024
82 | CGCUAG | 2.007 ± 0.0038 | 2.025 ± 0.011
83 | AGGCCA | 2.0454 ± 0.0016 | 2.04 ± 0.04
84 | AGGCCU | 2.07 ± 0.031 | 2.06 ± 0.0088
85 | AGGCCC | 2.068 ± 0.0036 | 2.03 ± 0.056
86 | AGGCCG | 2.039 ± 0.017 | 2.02 ± 0.039
87 | AGCGCU | 2.027 ± 0.0049 | 2.01 ± 0.026
88 | AGCGCG | 1.972 ± 0.019 | 2 ± 0.037
89 | AGCGCC | 2.058 ± 0.017 | 2.03 ± 0.037
90 | CGGCCC | 2.09 ± 0.035 | 2.04 ± 0.032
91 | CGGCCA | 2.111 ± 0.021 | 2.058 ± 0.0046
92 | CGGCCG | 2.038 ± 0.015 | 2.03 ± 0.038

Row | Variant | normalized RNA/DNA level without ligand (log10) ((6R,S)-folinic acid [1]) | normalized RNA/DNA level with ligand (log10) ((6R,S)-folinic acid [2])
93 | CGGCCU | 2.0767 ± 0.00028 | 2.06 ± 0.068
94 | AGGACA | 1.989 ± 0.0041 | 2.02 ± 0.038
95 | AGGACU | 1.993 ± 0.0073 | 2.009 ± 0.017
96 | AGGACG | 1.962 ± 0.0089 | 2.032 ± 0.014
97 | AGGACC | 2.029 ± 0.0033 | 1.99 ± 0.043
98 | CGCCGG | 2.03 ± 0.026 | 2.034 ± 0.017
99 | CGCCGU | 2.038 ± 0.0097 | 2.05 ± 0.065
100 | AGGAUG | 1.92 ± 0.031 | 2.037 ± 0.019
101 | AGGAUU | 2.024 ± 0.017 | 2.05 ± 0.028
102 | AGGAUC | 2.059 ± 0.012 | 2.014 ± 0.013
103 | UGGCGG | 1.8196 ± 0.0011 | 1.99 ± 0.056
104 | UGGCGC | 2.08 ± 0.027 | 2.05 ± 0.055
105 | UGGCGA | 1.98 ± 0.0056 | 2.067 ± 0.0097
106 | UGGCGU | 1.99 ± 0.031 | 2.03 ± 0.05
107 | CGGGCA | 2.059 ± 0.0067 | 2.04 ± 0.0044
108 | GGCGGC | 2.012 ± 0.018 | 2.014 ± 0.013
109 | GGCGGG | 2.1126 ± 0.00086 | 2.08 ± 0.028
110 | GGCGGA | 2.064 ± 0.0089 | 2.021 ± 0.016
111 | GGCGGU | 2.06 ± 0.026 | 2.03 ± 0.037
112 | AGGCGG | 2.0398 ± 0.0017 | 2.044 ± 0.01
113 | AGGCGU | 2.02 ± 0.025 | 2.048 ± 0.0022
114 | AGGCGC | 2.057 ± 0.015 | 2.03 ± 0.026
115 | AGGCGA | 2.0336 ± 0.00079 | 2.06 ± 0.023
